According to patent US20220333113:
Where a chain is given by its changes, count along the chain named.

Experiments:
Experiment in all cases: filter
Details in all cases: J = PPdU at every J; SB18T0.01 + 1 mM DTT, 37 C
[1] = molecular target: T1, RIG-I K888A (Homo sapiens) (UniProt O95786)
T1 sequence: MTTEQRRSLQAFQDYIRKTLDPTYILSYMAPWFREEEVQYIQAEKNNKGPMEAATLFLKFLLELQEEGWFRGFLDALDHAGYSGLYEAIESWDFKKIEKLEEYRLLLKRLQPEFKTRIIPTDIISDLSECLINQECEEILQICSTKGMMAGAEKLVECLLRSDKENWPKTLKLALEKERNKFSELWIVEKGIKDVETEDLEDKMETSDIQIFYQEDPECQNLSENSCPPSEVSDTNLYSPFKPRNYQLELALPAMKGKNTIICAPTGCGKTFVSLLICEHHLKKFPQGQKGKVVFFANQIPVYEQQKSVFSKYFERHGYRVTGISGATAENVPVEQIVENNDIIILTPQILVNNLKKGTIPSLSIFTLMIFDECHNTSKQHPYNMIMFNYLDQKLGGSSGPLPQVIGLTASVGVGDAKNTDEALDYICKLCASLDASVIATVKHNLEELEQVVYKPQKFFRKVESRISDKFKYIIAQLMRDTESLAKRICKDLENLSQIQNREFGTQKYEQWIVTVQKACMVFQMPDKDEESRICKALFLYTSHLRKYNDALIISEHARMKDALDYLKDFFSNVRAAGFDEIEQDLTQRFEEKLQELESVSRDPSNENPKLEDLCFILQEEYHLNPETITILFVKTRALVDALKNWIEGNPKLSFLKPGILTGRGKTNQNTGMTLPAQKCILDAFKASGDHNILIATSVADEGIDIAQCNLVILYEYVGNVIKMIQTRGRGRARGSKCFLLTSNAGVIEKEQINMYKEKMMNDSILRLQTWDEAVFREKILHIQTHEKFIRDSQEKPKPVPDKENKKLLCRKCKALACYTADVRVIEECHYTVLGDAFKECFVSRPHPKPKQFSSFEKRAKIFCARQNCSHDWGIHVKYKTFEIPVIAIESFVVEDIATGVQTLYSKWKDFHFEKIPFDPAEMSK

[2] = molecular target: T2, RIG-I ΔCARDs (aa 229-925) (Homo sapiens) (UniProt O95786)
T2 sequence: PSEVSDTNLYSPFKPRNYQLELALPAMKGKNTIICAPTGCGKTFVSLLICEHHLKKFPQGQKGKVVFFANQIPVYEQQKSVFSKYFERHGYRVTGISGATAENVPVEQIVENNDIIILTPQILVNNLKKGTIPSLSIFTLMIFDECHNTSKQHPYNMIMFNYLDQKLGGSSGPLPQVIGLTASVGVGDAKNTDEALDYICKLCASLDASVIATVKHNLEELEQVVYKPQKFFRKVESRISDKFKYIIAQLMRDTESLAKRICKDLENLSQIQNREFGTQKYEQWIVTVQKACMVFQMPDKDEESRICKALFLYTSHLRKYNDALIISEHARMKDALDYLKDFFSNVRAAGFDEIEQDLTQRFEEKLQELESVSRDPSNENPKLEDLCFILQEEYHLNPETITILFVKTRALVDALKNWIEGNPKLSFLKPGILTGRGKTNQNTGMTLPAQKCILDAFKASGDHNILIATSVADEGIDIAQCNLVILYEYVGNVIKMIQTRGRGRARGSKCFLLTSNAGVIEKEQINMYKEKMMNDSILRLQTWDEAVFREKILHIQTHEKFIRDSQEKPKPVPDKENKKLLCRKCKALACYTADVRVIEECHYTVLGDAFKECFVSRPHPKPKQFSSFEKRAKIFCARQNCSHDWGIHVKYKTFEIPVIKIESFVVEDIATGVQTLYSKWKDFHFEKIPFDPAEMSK

[3] = molecular target: T3, RIG-I H847A (Homo sapiens) (UniProt O95786)
T3 sequence: T1 sequence with H847A, A888K

Work on “ATCTCTGTGTCATGTGTTTTAATGTCAGTTTAATGATGAGG [14832-55_8]” yielded a Kd [1] of 0.53 nM, a Kd [2] of 0.013 nM and a Kd [3] of 9.9 nM.
